What was measured:
[1] = molecular target: T1, cyno MerTK extracellular domain (ECD), recombinant (cynomolgus monkey, UniProt Q12866 21-505 (human entry)); test: SPR, Carterra LSA
T1 construct: also called cynomolgus MerTK; not shown: polyHis tag or TEVS/Thrombin/murine IgG2a Fc tag
T1 chain: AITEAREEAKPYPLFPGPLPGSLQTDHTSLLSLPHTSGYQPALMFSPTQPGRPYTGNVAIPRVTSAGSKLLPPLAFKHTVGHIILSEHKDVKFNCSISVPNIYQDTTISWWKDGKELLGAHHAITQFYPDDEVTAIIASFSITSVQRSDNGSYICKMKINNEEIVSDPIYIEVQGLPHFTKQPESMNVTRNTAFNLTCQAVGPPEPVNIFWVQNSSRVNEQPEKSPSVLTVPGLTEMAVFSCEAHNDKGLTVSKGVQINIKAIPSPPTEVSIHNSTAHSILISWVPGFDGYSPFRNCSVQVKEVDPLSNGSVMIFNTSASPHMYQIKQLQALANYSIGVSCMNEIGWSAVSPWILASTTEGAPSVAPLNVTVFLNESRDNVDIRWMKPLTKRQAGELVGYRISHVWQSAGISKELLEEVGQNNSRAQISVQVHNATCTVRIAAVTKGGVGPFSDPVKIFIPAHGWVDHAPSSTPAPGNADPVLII

[2] = molecular target: T2, Recombinant human MerTK human Fc Chimera protein (R&D systems, Cat #391-MR-100) (human, UniProt Q12866 26-499, limits assumed); test: competition ELISA, His-ProS on captured MerTK-Fc
T2 construct: Bought; also called recombinant human MerTK protein; MerTK-Fc
T2 sequence: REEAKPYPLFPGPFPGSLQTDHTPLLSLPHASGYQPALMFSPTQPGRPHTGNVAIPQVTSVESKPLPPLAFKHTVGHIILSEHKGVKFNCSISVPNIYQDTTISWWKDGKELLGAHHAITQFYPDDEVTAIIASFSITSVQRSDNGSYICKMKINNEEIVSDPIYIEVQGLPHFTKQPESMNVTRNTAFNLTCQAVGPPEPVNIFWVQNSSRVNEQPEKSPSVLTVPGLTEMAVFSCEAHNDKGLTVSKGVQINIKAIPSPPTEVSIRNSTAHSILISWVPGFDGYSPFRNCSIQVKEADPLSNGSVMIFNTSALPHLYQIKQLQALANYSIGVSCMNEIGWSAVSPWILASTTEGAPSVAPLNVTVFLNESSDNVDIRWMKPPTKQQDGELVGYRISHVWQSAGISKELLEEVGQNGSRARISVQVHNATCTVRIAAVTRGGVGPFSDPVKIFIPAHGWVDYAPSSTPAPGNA
Experimental: Rabbit anti-human IgG polyclonal antibody (Jackson ImmunoResearch, Cat #309-005-008) was captured to a high-protein binding plate at 2 μg/ml 4° C. overnight. After washing with 0.05% Tween20 in PBS three times, 5% BSA in PBS was added for 1 hour. Recombinant human MerTK human Fc Chimera protein (R&D systems, Cat #391-MR-100) was added at 2 μg/ml for 1 hour and the plates were then washed. Anti-MerTK antibodies were titrated to final concentration range of between 66.6 nM to 4 pM and then 40 μl of serially diluted antibody and 40 μl of His tag-conjugated recombinant Gas6 protein (R&D systems, Cat #885-GSB-050) at 3 μg/ml or His tag-conjugated recombinant ProS protein (R&D systems, Cat #9489-PS-100) at 20 μg/ml. After a further incubation for 1 hour, plates were washed and incubated for 1 hour with HRP-conjugated anti-6×His tag antibody (Abcam, Cat #ab1187). Plates were then washed and an HRP substrate (TMB) was used to develop the plates. After sufficient color change was observed, the reaction was stopped by adding 50 μl 2N H₂SO₄ and the OD was measured using a spectrophotometer (BioTek).
From these experiments, IC50 values [nM] were determined using OD450 values obtained from the dose-response curves analyzed with Prism software. Table 14 and Table 15 show IC50 values determined for anti-MerTK antibody blocking of Gas6 ligand binding and ProS ligand binding to MerTK. […] Dashes indicate lack of significant blocking; “n.a.” indicates data not available.

[3] = molecular target: T3, human MerTK endogenously expressed on cells (SK-MEL-5 cells; human macrophages) (human, UniProt Q12866 21-999); test: cell-based or functional assay
T3 sequence: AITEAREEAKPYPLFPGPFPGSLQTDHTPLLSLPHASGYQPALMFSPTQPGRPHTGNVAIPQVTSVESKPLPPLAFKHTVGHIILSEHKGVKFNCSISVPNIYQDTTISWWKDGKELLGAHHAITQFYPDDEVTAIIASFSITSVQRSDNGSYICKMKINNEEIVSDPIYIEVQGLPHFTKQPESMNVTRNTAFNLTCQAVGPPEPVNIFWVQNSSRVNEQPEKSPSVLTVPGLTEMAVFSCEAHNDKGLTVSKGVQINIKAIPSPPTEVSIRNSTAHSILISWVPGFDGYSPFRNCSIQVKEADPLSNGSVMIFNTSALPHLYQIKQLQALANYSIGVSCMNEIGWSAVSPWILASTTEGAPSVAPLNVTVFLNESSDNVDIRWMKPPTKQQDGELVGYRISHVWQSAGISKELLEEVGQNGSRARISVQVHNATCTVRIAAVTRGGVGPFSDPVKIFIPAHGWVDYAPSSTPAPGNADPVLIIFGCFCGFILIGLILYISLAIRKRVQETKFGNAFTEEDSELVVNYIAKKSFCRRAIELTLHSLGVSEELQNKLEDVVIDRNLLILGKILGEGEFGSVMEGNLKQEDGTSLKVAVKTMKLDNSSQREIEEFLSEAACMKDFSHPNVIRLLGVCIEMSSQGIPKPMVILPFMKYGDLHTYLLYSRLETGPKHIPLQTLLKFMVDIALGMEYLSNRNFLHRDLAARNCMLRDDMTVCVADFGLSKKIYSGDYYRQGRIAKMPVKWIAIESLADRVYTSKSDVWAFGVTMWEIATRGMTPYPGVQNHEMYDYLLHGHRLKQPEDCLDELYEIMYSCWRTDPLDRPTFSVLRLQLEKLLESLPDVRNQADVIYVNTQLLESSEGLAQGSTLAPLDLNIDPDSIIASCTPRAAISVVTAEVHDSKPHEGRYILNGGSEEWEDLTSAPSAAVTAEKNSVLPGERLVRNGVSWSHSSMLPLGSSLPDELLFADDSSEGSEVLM

binding result [1]: binds
IC50 [2]: 7.84 nM
Gas6-mediated pAKT activity, average IC50, human M2c macrophages [3]: 1.67 nM
B1: MTK-09 (antibody, human IgG1, V domains shown)
VH: QVQLQQSGAELVRPGASVKISCKAFGYTFTNHHIKWVKQRPGQGLDWIGYIDPYNDYTTYNQNFKGKATLTVDKSSSTAYMELSSLTSEDSAVYYCARRAYDGYYVDWYFDVWGAGTTVTVSS
VL: DIVMTQSHKFMSTSVGDRVSITCKASQDVTTSVAWYHQKPGQSPELLIYSASYRYTGVPDRFTGSGSGTDFTFTISSVQAEDLAIYYCQQHYSTPLTFGSGTKLQLK

Source: patent US20210261685A1 (Alector, published 2021)
